From patent publication US5187153A, “Methods of treatment using Alzheimer's amyloid polypeptide derivatives” (Scios Nova Inc., priority 1990, dated 1993)
Read-outs that look alike come from different tables or passages of the source.

Experiments:
[1] = target: T1, trypsin (Sus scrofa, UniProt P00761); experiment: Protease inhibition, fluorogenic MCA substrate: trypsin; format: biochemical, porcine
T1 construct: trypsin (17,000 units/mg from porcine pancreas); from tissue; host or cells: porcine pancreas
T1 sequence (P00761 9-231): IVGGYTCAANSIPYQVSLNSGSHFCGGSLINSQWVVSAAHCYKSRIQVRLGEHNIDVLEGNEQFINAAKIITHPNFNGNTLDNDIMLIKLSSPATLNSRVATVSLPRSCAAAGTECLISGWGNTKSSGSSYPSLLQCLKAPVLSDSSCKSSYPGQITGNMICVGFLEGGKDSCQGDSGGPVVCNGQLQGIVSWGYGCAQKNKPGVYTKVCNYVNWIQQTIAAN
Description: (§1) The effects of A4 inhibitor on serine- and thiol- proteases were examined as follows: trypsin (17,000 units/mg from porcine pancreas), factor Xa and β-thrombin (gifts from Dr. Iwanagu, Kyushu University, Fukuoka, Japan), tryptase and chymase (both from rat peritoneal mast cells purified as described in Kido et al., Arch Biochem Biophys 239:436-443 (1985)), α-chymotrypsin (0.75 U/mg from bovine pancreas), elastase (33 U/mg from porcine pancreas), papain, cathepsin B (from rat liver purified as described in Towatari et al., Eur J Biochem 102:279-289 (1979)), plasmin (0.16 U/mg from human plasma), urokinase (0.75 U/mg from human kidney cells, Sigma Chemical Co.), tissue kallikrein (50 U/mg from porcine pancreas) or plasma kallikrein (9.4 U/mg from human plasma) was preincubated with various concentrations of the inhibitor in a total volume of 1.5 ml of buffer containing bovine serum albumin (0.1 mg/ml). The buffers used were as follows: 0.1 M Tris-HCl, pH 7.5, for trypsin, plasmin and urokinase; 0.1 M Tris-HCl, pH 8.0, for chymase and α-chymotrypsin; 0.1 M Tris-HCl, pH 8.0, containing 10 mM CaCl2 for factor Xa and α-thrombin; 0.1 M Tris-HCl, pH 8.5, for tryptase M; 0.1 M Tris-HCl, pH 7.8, for plasma and tissue kallikrein; 0.1 M Tris-HCl, pH 7.0 for elastase; 50 mM acetate, pH 6.0, containing 1 mM EDTA and 4 mM cysteine for papain and cathepsin B. After preincubation for 5 min at 25° C., 7.5 μl of 20 mM concentrations of the fluorogenic substrate shown in Table I were added and the residual activity of each protease was measured in a quartz cuvette maintained thermostatically at 25° C. The amount of 7-amino-4-methylcoumarin liberated from the substrates was determined fluorometrically with excitation and emission wavelengths of 380 nm and 460 nm, respectively, in a Hitachi fluorescence spectrophotometer, 650-10MS model, as reported in Kido et al. (1988), supra. Protein concentration was determined with bicinchoninic acid protein assay reagent as described by Smith et al., Anal. Biochem. 150:76-85 (1985). […]

[2] = test system: Tryptase M; experiment: Protease inhibition, fluorogenic MCA substrate: tryptase M; format: biochemical, rat
Description: as §1, with “The buffers used were as follows: 0.1 M Tris-HCl, pH 7.5, for trypsin, plasmin and urokinase; 0.1 M Tris-HCl, pH 8.0, for chymase and α-chymotrypsin; 0.1 M Tris-HCl, pH 8.0, containing 10 mM CaCl2 for factor Xa and α-thrombin; 0.1 M Tris-HCl, pH 8.5, for tryptase M; 0.1 M Tris-HCl, pH 7.8, for plasma and tissue kallikrein; 0.1 M Tris-HCl, pH 7.0 for elastase; 50 mM acetate, pH 6.0, containing 1 mM EDTA and 4 mM cysteine for papain and cathepsin B. After preincubation for 5 min at 25° C., 7.5 μl of 20 mM concentrations of the fluorogenic substrate shown in Table I were added and the residual activity of each protease was measured in a quartz cuvette maintained thermostatically at 25° C.” left out

[3] = target: Factor Xa; experiment: Protease inhibition, fluorogenic MCA substrate: factor Xa; format: biochemical; conditions: substrate Boc-Ile-Glu-Gly-Arg-MCA, pH 8.0, 25° C.
Description: as §1, with “The buffers used were as follows: 0.1 M Tris-HCl, pH 7.5, for trypsin, plasmin and urokinase; 0.1 M Tris-HCl, pH 8.0, for chymase and α-chymotrypsin; 0.1 M Tris-HCl, pH 8.0, containing 10 mM CaCl2 for factor Xa and α-thrombin; 0.1 M Tris-HCl, pH 8.5, for tryptase M; 0.1 M Tris-HCl, pH 7.8, for plasma and tissue kallikrein; 0.1 M Tris-HCl, pH 7.0 for elastase; 50 mM acetate, pH 6.0, containing 1 mM EDTA and 4 mM cysteine for papain and cathepsin B. After preincubation for 5 min at 25° C., 7.5 μl of 20 mM concentrations of the fluorogenic substrate shown in Table I were added and the residual activity of each protease was measured in a quartz cuvette maintained thermostatically at 25° C.” left out

[4] = test system: α-Thrombin; experiment: Protease inhibition, fluorogenic MCA substrate: α-thrombin; format: biochemical
Description: as §1, with “The buffers used were as follows: 0.1 M Tris-HCl, pH 7.5, for trypsin, plasmin and urokinase; 0.1 M Tris-HCl, pH 8.0, for chymase and α-chymotrypsin; 0.1 M Tris-HCl, pH 8.0, containing 10 mM CaCl2 for factor Xa and α-thrombin; 0.1 M Tris-HCl, pH 8.5, for tryptase M; 0.1 M Tris-HCl, pH 7.8, for plasma and tissue kallikrein; 0.1 M Tris-HCl, pH 7.0 for elastase; 50 mM acetate, pH 6.0, containing 1 mM EDTA and 4 mM cysteine for papain and cathepsin B. After preincubation for 5 min at 25° C., 7.5 μl of 20 mM concentrations of the fluorogenic substrate shown in Table I were added and the residual activity of each protease was measured in a quartz cuvette maintained thermostatically at 25° C.” left out

[5] = target: T2, Chymase (Rattus norvegicus, UniProt P09650); experiment: Protease inhibition, fluorogenic MCA substrate: chymase; format: biochemical
T2 construct: tryptase and chymase (both from rat peritoneal mast cells purified as described in Kido et al); from tissue; host or cells: rat peritoneal mast cells
T2 sequence (P09650 21-260): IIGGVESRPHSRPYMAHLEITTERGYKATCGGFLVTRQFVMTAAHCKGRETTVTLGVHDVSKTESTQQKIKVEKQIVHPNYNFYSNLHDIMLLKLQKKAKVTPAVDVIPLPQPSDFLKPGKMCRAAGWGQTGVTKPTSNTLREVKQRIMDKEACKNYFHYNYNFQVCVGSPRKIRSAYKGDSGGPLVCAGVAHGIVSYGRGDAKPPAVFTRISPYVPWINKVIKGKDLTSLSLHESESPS
Description: as §1, with “The buffers used were as follows: 0.1 M Tris-HCl, pH 7.5, for trypsin, plasmin and urokinase; 0.1 M Tris-HCl, pH 8.0, for chymase and α-chymotrypsin; 0.1 M Tris-HCl, pH 8.0, containing 10 mM CaCl2 for factor Xa and α-thrombin; 0.1 M Tris-HCl, pH 8.5, for tryptase M; 0.1 M Tris-HCl, pH 7.8, for plasma and tissue kallikrein; 0.1 M Tris-HCl, pH 7.0 for elastase; 50 mM acetate, pH 6.0, containing 1 mM EDTA and 4 mM cysteine for papain and cathepsin B. After preincubation for 5 min at 25° C., 7.5 μl of 20 mM concentrations of the fluorogenic substrate shown in Table I were added and the residual activity of each protease was measured in a quartz cuvette maintained thermostatically at 25° C.” left out

[6] = target: T3, α-chymotrypsin (Bos taurus, UniProt P00766); experiment: Protease inhibition, fluorogenic MCA substrate: α-chymotrypsin; format: biochemical, bovine
T3 construct: α-chymotrypsin (0.75 U/mg from bovine pancreas); from tissue; host or cells: bovine pancreas
Description: as §1, with “The buffers used were as follows: 0.1 M Tris-HCl, pH 7.5, for trypsin, plasmin and urokinase; 0.1 M Tris-HCl, pH 8.0, for chymase and α-chymotrypsin; 0.1 M Tris-HCl, pH 8.0, containing 10 mM CaCl2 for factor Xa and α-thrombin; 0.1 M Tris-HCl, pH 8.5, for tryptase M; 0.1 M Tris-HCl, pH 7.8, for plasma and tissue kallikrein; 0.1 M Tris-HCl, pH 7.0 for elastase; 50 mM acetate, pH 6.0, containing 1 mM EDTA and 4 mM cysteine for papain and cathepsin B. After preincubation for 5 min at 25° C., 7.5 μl of 20 mM concentrations of the fluorogenic substrate shown in Table I were added and the residual activity of each protease was measured in a quartz cuvette maintained thermostatically at 25° C.” left out

[7] = target: T4, Elastase (Sus scrofa, UniProt P00772); experiment: Protease inhibition, fluorogenic MCA substrate: elastase; format: biochemical, porcine
T4 construct: elastase (33 U/mg from porcine pancreas); from tissue; host or cells: porcine pancreas
T4 sequence (P00772 27-266): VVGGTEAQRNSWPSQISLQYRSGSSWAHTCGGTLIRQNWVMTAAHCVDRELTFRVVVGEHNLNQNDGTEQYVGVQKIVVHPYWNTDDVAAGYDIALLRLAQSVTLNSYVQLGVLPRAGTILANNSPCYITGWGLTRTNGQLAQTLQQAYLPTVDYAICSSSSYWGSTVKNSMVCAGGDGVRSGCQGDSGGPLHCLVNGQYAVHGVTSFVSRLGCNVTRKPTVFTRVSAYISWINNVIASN
Description: as §1, with “The buffers used were as follows: 0.1 M Tris-HCl, pH 7.5, for trypsin, plasmin and urokinase; 0.1 M Tris-HCl, pH 8.0, for chymase and α-chymotrypsin; 0.1 M Tris-HCl, pH 8.0, containing 10 mM CaCl2 for factor Xa and α-thrombin; 0.1 M Tris-HCl, pH 8.5, for tryptase M; 0.1 M Tris-HCl, pH 7.8, for plasma and tissue kallikrein; 0.1 M Tris-HCl, pH 7.0 for elastase; 50 mM acetate, pH 6.0, containing 1 mM EDTA and 4 mM cysteine for papain and cathepsin B. After preincubation for 5 min at 25° C., 7.5 μl of 20 mM concentrations of the fluorogenic substrate shown in Table I were added and the residual activity of each protease was measured in a quartz cuvette maintained thermostatically at 25° C.” left out

For “A4i: 57 amino acid Kunitz-type serine protease inhibitor encoded by the 168 bp insert of λAPCP168i4”, the “inhibition of pancreatic trypsin (in words)” value [1] was “inhibits”, the Ki ([1]; Trypsin, substrate Boc-Phe-Ser-Arg-MCA, pH 7.5, 25° C., read-out: Ki value) was 2.7 nM and the Ki ([1]; pancreatic trypsin, read-out: Ki) was 3 nM. For the same substance, the “inhibition of tryptase (in words)” value [2] was “strongly inhibits”, the Ki ([2]; tryptase, unit inferred, read-out: dissociation constant Ki) was 0.22 nM and the Ki [3] was 257 nM. For the same substance, the “inhibition of α-thrombin (in words)” value [4] was “did not inhibit”, the Ki ([4]; α-Thrombin, substrate Boc-Val-Pro-Arg-MCA, pH 8.0, 25° C.) was over 1000 nM and the “inhibition of chymase (in words)” value [5] was “did not inhibit”. The Ki ([5]; Chymase, substrate Suc-Leu-Leu-Val-Tyr-MCA, pH 8.0, 25° C.) was over 1000 nM, the “inhibition of α-chymotrypsin (in words)” value [6] was “inhibits” and the Ki ([6]; α-chymotrypsin) was 8.5 nM. The “inhibition of pancreatic elastase (in words)” value [7] was “did not inhibit”.
